The values below come from the nanobody polyreactivity screen of Harvey et al. (2022).

The series can be described thus: yeast display, Sf9 membrane polyspecificity reagent, FACS + sequencing; frameworks hold sequencing errors. The essentials: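 Galactose induction of a Saccharomyces cerevisiae BJ5465 synthetic nanobody display library ran 36–48 hours. The cells were then stained for 1 hour at 4 °C with 10% biotinylated, detergent-solubilized Sf9 membrane reagent, pulled down on streptavidin microbeads and FACS-sorted into low and high (top ~1%) gates on expression and reagent-binding fluorescence. Labels for polyreactivity follow the gate of origin.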
In the case of “QVQLVESGGGLVQAGGSLRLSCAASGRIFFRNAMGWYRQAPGKEREFVAAINWSGGSTYYADSVKGRFTISRDNAKNTVYLQMNSLKPEDTAVYYCAARGSRGGRRGATASMDYWGQGTQVTVSS”, the “polyreactivity (PSR sort gate)” value is on record as “high polyreactivity”.
Turning to “QVQLVESGGGLVQAGGSLRLSCAASGRIFFRYAMGWYRQAPGKERELVAAISYSGGSTYYADSVKGRFTISRDNAKNTVYLQMNSLKPDDTAVYYCATGPVYEYDYWGQGTQVTVSS”, the “polyreactivity (PSR sort gate)” value is given as “low polyreactivity”.
As for “QVQLVESGGGLVQAGGSLRLSCAASGRIFFVNAMGWYRQAPGKERELVAAITYSGARTYYADSVKGRFTISRDHAKNTVYLQMNSLKPEDTAVYYCNADQRTASDQLEFDYWGQGTQVTVSS”, the entry is “low polyreactivity”; as for “QVQLVESGGGLVQAGGSLRLSCAASGRIFFWYAMGWYRQAPGKERELVAAISKSGGSTYYADSVKGRFTISRDNAKNTVYLQMNSLKPEDTAVYYCARVSKRTWSGYYYWGQGTQVTVSS”, “high polyreactivity”; as for “QVQLVESGGGLVQAGGSLRLSCAASGRIFFYNAMGWYRQAHGKERELVAAISARGDRTYYADSVKGRFTISRDNAKNTVYLQMNSLKPEDTAVYYCAADYYNYRYDYWGQGTQVTVSS”, “high polyreactivity”.
As for “QVQLVESGGGLVQAGGSLRLSCAASGRIFFYNAMGWYRQAPGKERELVATIRGGGSTNYADSVKGRFTISRDNAKNTVYLQMNSLKPEDTAVYYCAARRGSYSVTEYWGQGTQVTVSS”, the entry is “high polyreactivity”; as for “QVQLVESGGGLVQAGGSLRLSCAASGRIFFYNAMGWYRQAPGKETELVAAISSSGGSTSYADSVKGRFTISRDIAKNTVYLHMNSLKPEDTAVYYCAVDDPYYEKYDYWGQGTQVTVSS”, “low polyreactivity”; as for “QVQLVESGGGLVQAGGSLRLSCAASGRIFFYYAMGWYRQAPGKERELVAAINRGGRTYYADSVKGRFTISRDNAKNTVYLQMNSLKPEDTAVYYCAADGQTAKSNFDYWGQGTQVTVSS”, “low polyreactivity”.
“QVQLVESGGGLVQAGGSLRLSCAASGRIFFYYAMGWYRQAPGKERELVAAIRSGGSTNYADSVKGRFTISRDNAKNTVYLQMNSLKPEDTAVYYCAADPSRYYTRRYYYWGQGTQVTVSS”: the “polyreactivity (PSR sort gate)” value is “high polyreactivity”.
For “QVQLVESGGGLVQAGGSLRLSCAASGRIFFYYAMGWYRQAPGKERELVAAISNSGGGTYYADSVKGRFTISRDNAKNTVYLQMNSLKPEDTAVYYCAREAGRYAYKYYWWQRPDYDYWGQGTQVTVSS”, the “polyreactivity (PSR sort gate)” value was “low polyreactivity”.
On to “QVQLVESGGGLVQAGGSLRLSCAASGRIFFYYAMGWYRQAPGKERELVATITASGDSTYYADSVKGRFTISRDNAKNTVYLQMNSLKPEDTAVYYCAADDGDYYEVDYWGQGTQVTVSS”, for which the “polyreactivity (PSR sort gate)” value was “low polyreactivity”.
Consider “QVQLVESGGGLVQAGGSLRLSCAASGRIFGAYALGWSRQAPGKEMELVADIRSTGSTYYADSVKGRFTISRDNAKNTVYLQMNSLKPEDTAVYYCAAKYWKWYHYGFGYWGQGTQVTVSS”, for which the “polyreactivity (PSR sort gate)” value is listed as “high polyreactivity”.
In the case of “QVQLVESGGGLVQAGGSLRLSCAASGRIFGAYAMGWYRPAPGKERELVAAISARGGRTYYADSVKGRFTISRDNAKNTVYLQMNSLKPEDTAVYYCAKTLRDPYRYDYWGQGTQVTVSS” it was “high polyreactivity”; in that of “QVQLVESGGGLVQAGGSLRLSCAASGRIFGAYAMGWYRQAPGKERELVAAISSRGGNTYYADSVKGRFTISRDNAKNTVYLQMNSLKPEDTAVYYCAARHDKRRQYYVGQSDFDYWGQGTQVTVSS”, “low polyreactivity”.
As for “QVQLVESGGGLVQAGGSLRLSCAASGRIFGAYAMGWYRQAPGKERELVATITKRGGSTFYADSVKGRFTISRDNAKNTVYVKMNSLKPEDTAVYYCAVVRYSPKRYWYGYWGQGTQVTVSS”, the entry is “high polyreactivity”.
For “QVQLVESGGGLVQAGGSLRLSCAASGRIFGAYAMGWYRQAPGKEREWVAVINWRSGGTYYADSVKGRFTISRDNAKNTVYLQMNSLKPVDTAVYYCAADDYGFFSAGDFDYWGHGTQVTVSS”, the “polyreactivity (PSR sort gate)” value is given as “high polyreactivity”.
As for “QVQLVESGGGLVQAGGSLRLSCAASGRIFGDYALGWYRQAPGKERELVAAISWSDGSTYYADSVKGRFTISRDKAKNTVYLQMNSLKPEDTAVYYCAAYGWGYSYVDVVVSDFYYWGQGTQVTVSS”, the entry is “low polyreactivity”; as for “QVQLVESGGGLVQAGGSLRLSCAASGRIFGDYGMGWYRQAPGKERELVAAITDRGGPTYYADSVKGRFTISRDNAKNTVYLQRNSLKPEDTAVYYCNARQSDIFDYDYWGQGTQVTVSS”, “low polyreactivity”; as for “QVQLVESGGGLVQAGGSLRLSCAASGRIFGDYGMGWYRQAPGNERELVAAITDRGGTTYYADSVKGRFTISRDNAKNTVYLQMNSLKPEDTAVYYCNARQSDIFDYDYWGQGTQVTVSS”, “low polyreactivity”.
On to “QVQLVESGGGLVQAGGSLRLSCAASGRIFGENAMGWYRQAPGKEREFVAVISISDASTYYADSVKGRFTISRDNAKNTVYLQMNSLKPEDTAVYYCNTDYINGYYIEGEPPYKFDYWGQGTQVTVSS”, for which the “polyreactivity (PSR sort gate)” value is “low polyreactivity”.
In the case of “QVQLVESGGGLVQAGGSLRLSCAASGRIFGFNTMGWYRQAPGKERELVAAITSGGSTYADSVKGRFTISRDNAKNTVYLQMNSLKPEDTAVYYCNTRFYRPLWGYNYWGQGTQVTVSS” it was “low polyreactivity”; in that of “QVQLVESGGGLVQAGGSLRLSCAASGRIFGGNAMGWSRQAPGKERELVAAISWSGGSTYADSVKGRFTISRDNAKNTVYLQMNSLKPEDTAVYYCATRLVKYYYYDYRTYGRRYDYWGQGTQVTVSS”, “high polyreactivity”.
As for “QVQLVESGGGLVQAGGSLRLSCAASGRIFGGYALGWYRQAPGKERELVAAITRSGGSTYYADSVKGRFTISRDNAKNTVYVQMNSLKPEDTAVYYCAARNYYSWRYDYWGQGTQVTVSS”, the entry is “high polyreactivity”; as for “QVQLVESGGGLVQAGGSLRLSCAASGRIFGGYAMGWYRQAPGKERELVASITGGGTTDYADSVKGRFTISRDNAKNTVYLQMNSLKPEDTAVYNCAIRTHQFGVSRSYNTYYYWGQGTQVTVSS”, “low polyreactivity”; as for “QVQLVESGGGLVQAGGSLRLSCAASGRIFGGYAMGWYRQAPGKERELVPSITGRATSTYYADSVKGRFTISRDNAKNTVYLQMNRLKPEDTAVYYFNALYRKYRNQWYISNYGYYYWGQGTQVTVSS”, “low polyreactivity”.
As for “QVQLVESGGGLVQAGGSLRLSCAASGRIFGHYAMGWYRQAPGKERELVAAISRSGTRTYYADSVKGRFTISRDNAKNTVYLQMNSLKPEDTAVYYCAAYTYKGIYYYWGQGTQVTVSS”, the entry is “high polyreactivity”; as for “QVQLVESGGGLVQAGGSLRLSCAASGRIFGHYAMGWYRQAPGKERELVASISSNGGSTYYADSVKGRFTISRDNAKNTVYLQINSLKPEDTAVYYCAARVSTVFKRYYYWGQGTQVTVSS”, “high polyreactivity”; as for “QVQLVESGGGLVQAGGSLRLSCAASGRIFGHYVMGWYRQAPRKERELDAAITRGDSTYYADSVKGRFTISRDNAKNTVYLEMNSLKPEDTAVYYCAARVWRVDARDRYYWGQGTQVTVSS”, “high polyreactivity”.
On to “QVQLVESGGGLVQAGGSLRLSCAASGRIFGINAMGWYRQAPGKERELVAAISWRSGSTYYADSVKGRFTISRDNAKNTVYLQMNSLKPEDTAVYYCAAKQDQDYYWGQGTQVTVSS”, for which the “polyreactivity (PSR sort gate)” value is “low polyreactivity”.
As for “QVQLVESGGGLVQAGGSLRLSCAASGRIFGINVMGWYRQAPGKERELVARITGRGGRTYYADSVKGRFTISRDNAKNTVYLQINSLKPEDTAFYYCAADARYEAYDYWGQGTQVTVSS”, the entry is “high polyreactivity”; as for “QVQLVESGGGLVQAGGSLRLSCAASGRIFGIYAMGWYRQAPGKERELVAAISFIGGRTYYADSVKGRFTISRDNAKNTVYLQMNSLKPEDTAVYYCAARTVPSSRREYWGQGTQVTVSS”, “high polyreactivity”; as for “QVQLVESGGGLVQAGGSLRLSCAASGRIFGIYTMGWYRQAPGKERELVAAITQGGGSTYYADSVKGRFTISRDNAKNTVYLQMNSLNPEDTAVYYCAARPKSPSGTRRYYWGQGTQVTVSS”, “high polyreactivity”.
With “QVQLVESGGGLVQAGGSLRLSCAASGRIFGKNAMGWYIQAPRKERDLVAAITSTGGTTYYADSVMGRFTISRDNAKNTVYLQMNSLKPEDSAVYDCAKDGQTNNETQGLKYDYWGQGTQLTVSS”, the “polyreactivity (PSR sort gate)” value is recorded as “low polyreactivity”.
In the case of “QVQLVESGGGLVQAGGSLRLSCAASGRIFGKNVMGLYRKAPGKERELVAAINRSSRTYYADSVKGRFTISRDNAKNTVYLQMNSLKPEDTAVYYCAAHAFPDGDYWGQGTQVTVSS” it was “high polyreactivity”; in that of “QVQLVESGGGLVQAGGSLRLSCAASGRIFGKYAMGWYRHAPGKERELVAAIRSRGSTTYYADSVKGRFTISRDNAKNTVYLQMNSLKPEDTAVYYCAKDVGGKPWYPYGYWGQGTQVTVSS”, “high polyreactivity”; in that of “QVQLVESGGGLVQAGGSLRLSCAASGRIFGKYAMGWYRQAPGKERELVARISFSGGTTYYADSVKGRFTISRDNAKNTVYLQMNSLKQEDTAVYYCNARRVWSQRWAYDSWGQGTQVTVSS”, “high polyreactivity”.
As for “QVQLVESGGGLVQAGGSLRLSCAASGRIFGKYAMGWYRQAPRKERELVARISFSGGTTYYADSVKGRFTISRDNAKNTVYLQMKSLKPEDTAVYYGNARRVWSQRWAYDSWGQGTQVTVSS”, the entry is “high polyreactivity”; as for “QVQLVESGGGLVQAGGSLRLSCAASGRIFGLNAMGWYRQAPGKERELVAAITGSVGSTYYADSVKGRFTISRDNAKNTVYLQMNSLKPEDTAVYYCYAEYDSRRSSYYRHFNYWGQGTQVTVSS”, “low polyreactivity”; as for “QVQLVESGGGLVQAGGSLRLSCAASGRIFGLNAMGWYRQAPGQERELVAAIDIIGGSTYYADSVKGRFTISRDNAKNTVYLQMNSLKPEDTAVYNCAAEGDFWRFVEYDYWGQGTQVTVSS”, “low polyreactivity”.
Regarding “QVQLVESGGGLVQAGGSLRLSCAASGRIFGLNTMGRYRQAPGKERELVAAITSSAGSTYYADSVKGRCTISRDNAKNTVYLQMNSLKPEDTAVYYSAARVSYLGSFTSQRYYYWGLGTQVTVSS”, the “polyreactivity (PSR sort gate)” value is “high polyreactivity”.
